Data from patent US5344777.

Biological target: protein having a molecular weight of about 44,000 which constitutes the membrane-bound alcohol dehydrogenase complex of Acetobacter altoacetigenes MH-24 (cytochrome c) (Acetobacter altoacetigenes MH-24)

protein having a molecular weight of about 72,000 which constitutes the membrane-bound alcohol dehydrogenase complex of Acetobacter altoacetigenes MH-24 (enzyme)
ADH enzyme activity (U/mg protein) in cell homogenate of transformed ADH-deleted mutant 10-80: 0.4 U/mg protein
